# Laboratory results as given in PMC8575264.
# Read-outs that look alike come from different tables or passages of the source.
# T1: Zn(II)-CPSF30-ZK (UniProt O19137)
# T1 chain: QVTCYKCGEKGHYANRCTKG
# Experiments:
# Assay in all cases: fluorescence anisotropy
# Zn(II)-CPSF30-F2F3 = Zn(II)-CPSF30-F2F3 (UniProt O19137)
# Zn(II)-CPSF30-ZK = molecular target: T1, Zn(II)-CPSF30-ZK
# holo-CPSF30-5F [1] = molecular target: T2, holo-CPSF30-5F (UniProt O19137 35-169)
# holo-CPSF30-FL [2] = molecular target: T3, holo-CPSF30-FL (Bos taurus, UniProt O19137 1-243)
# holo-CPSF30-FL [3] = molecular target: T3, holo-CPSF30-FL; remark: listed apart in the source
# holo-CPSF30-FL [4] = molecular target: T3, holo-CPSF30-FL; remark: listed apart in the source
# holo-CPSF30-5F [5] = molecular target: T2, holo-CPSF30-5F; remark: listed apart in the source
# holo-CPSF30-FL [6] = molecular target: T3, holo-CPSF30-FL; remark: listed apart in the source
binder,measurement,setting,value
AAUAAUAAUAAU (ssRNA) [AAU12],binding result,Zn(II)-CPSF30-F2F3,no binding
AAUAAUAAU (ssRNA) [AAU9],binding result,Zn(II)-CPSF30-F2F3,no binding
UUUAUUUAUUU (ssRNA) [ARE11],binding result,Zn(II)-CPSF30-ZK,no binding
same,binding result,Zn(II)-CPSF30-F2F3,no binding
"CACUUUAAUCCUCCAAAUCAUGCU (ssRNA) [ΔA1,2,4,5]",binding result,holo-CPSF30-5F [1],no binding
same,apparent K (half saturation),holo-CPSF30-FL [2],275 nM
CACUUUAAUAAUAAAAAUCAUGCU (ssRNA) [α-syn24],apparent K (half saturation),holo-CPSF30-FL [3],110 nM
same,binding result,Zn(II)-CPSF30-F2F3,no binding
CACUUUAAUCCCCCCAAUCAUGCU (ssRNA) [PolyC24],binding result,holo-CPSF30-FL [4],no binding
AAUAAUAAUAAUAAUAAUAAUAAU (ssRNA) [AAU24],binding result,Zn(II)-CPSF30-F2F3,no binding
UUUUUUUUUUUUUUUUUUUUUUUU (ssRNA) [PolyU24],binding result,holo-CPSF30-5F [1],no binding
same,binding result,Zn(II)-CPSF30-ZK,no binding
UCUCACUUUAAUAAUAAAAAUCAUGCUUAU (ssRNA) [α-syn30],apparent K (half saturation),holo-CPSF30-5F [5],178 nM
same,apparent K (half saturation),holo-CPSF30-FL [6],110 nM
same,binding result,Zn(II)-CPSF30-F2F3,no binding
